Assay [1] has as its target monkey FcRn (monkey (cynomolgus monkeys in the same paragraph)) (UniProt Q8SPV9).
Assay [2] addresses human neonatal Fc receptor (FcRn) (human) (UniProt P55899).
The target is the same in assay [3]. In words: SPR. In general terms: SPR reads the build-up and loss of mass on a sensor chip optically.
Assay [4] addresses monkey FcRn (monkey (cynomolgus monkeys in the same paragraph)) (UniProt Q8SPV9). This is another data set of the same source.

The substance “Xtend-VEGF (bevacizumab IgG1 with the Fc substitutions M428L/N434S) (antibody)” had a serum half-life in cynomolgus monkeys, 4 mg/kg i.v. in assay [1] of 31.1 days. Also, the serum half-life in hFcRn mice (mFcRn-/-, hFcRn+), 2 mg/kg i.v. in assay [2] worked out at 12 days. The fold improvement in FcRn affinity in assay [3] was 11 fold.

“Xtend-EGFR (humanized cetuximab huC225 IgG1 with the Fc substitutions M428L/N434S) (antibody)”: the serum half-life in cynomolgus monkeys, 7.5 mg/kg i.v. in assay [4] was determined as 4.7 days. The serum half-life in hFcRn mice (mFcRn-/-, hFcRn+), 2 mg/kg i.v. in assay [2] is 13.9 days.
